Laboratory results as given in patent US5130298A, “Stabilized compositions containing epidermal growth factor” (Ethicon, Inc., priority 1989, dated 1992).

Columns and labels:
[1] = Stability of precipitated EGF at pH 4.6, 7 days at 46° C., with or without zinc ion, reverse phase HPLC; type: physicochemical; conditions: pH 4.6, precipitated, sodium acetate buffer
Procedure: (§1) The zinc-EGF complex must be dissociated before HPLC analysis because the complex cannot be run on the HPLC column as is. Therefore, prior to HPLC, the pH of the samples to be analyzed was adjusted to 3.0. Alternatively, EDTA (a chelating agent) may be used to reverse crystallization. Reverse phase HPLC was conducted using a Vydac C-4 column (4.6 mm×25 cm, 5μm). The flow rate was 0.8 ml/min at 26° C. using a linear gradient of 26% to 32% acetonitrile (0.1% TFA) over 26 minutes.
This experiment was designed to answer the stability of the zinc-EGF complex results from the exclusion of water by the large and insoluble complex or alternatively from the direct interaction of zinc ion with specific amino acids in the protein. A zinc-EGF solution and control were prepared as in Example 1 and the samples were adjusted to a PH of 4.6. At this pH EGF naturally precipitates out of solution since it is at its isoelectric point. Two sets of the precipitated EGF at pH 4.6 in sodium acetate buffer were incubated for 7 days at 46° C.

[2] = EGF stability with zinc ion at pH 5.5 to 6.5, aged 28 days at 46° C., reverse phase HPLC of Peaks C, D, X, Y; type: physicochemical
Procedure: Recombinantly produced human EGF (Chiron Corporation, Emeryville, Calif.) was used in the following experiments. EGF stability with zinc ion was tested at pH 5.5 to 6.5. Lyophilized EGF was reconstituted in 50 mM sodium acetate at PH 5.5. A solution of zinc chloride was then added to this EGF solution. Alternatively, a solution of zinc acetate or crystals of a zinc salt could have been added.
The samples were permitted to age over a 28 day period and then HPLC analysis was used to study the structural changes involving the formation of new species (e.g., Peaks C, X and Y) of EGF under various storage conditions and in the presence of new formulations. Reverse phase HPLC can be used for quantitative and qualitative analysis of EGF.
as §1

Substance	% Peak C [1] [%]	% Peak X [1] [%]	% Peak Y [1] [%]	% Peak C ([2]; pH 5.5, 28 days at 46° C.) [%]	% Peak D (native EGF) ([2]; pH 5.5, 28 days at 46° C.) [%]	% Peak X ([2]; pH 5.5, 28 days at 46° C.) [%]	% Peak C ([2]; pH 6.0, 28 days at 46° C.) [%]	% Peak D (native EGF) ([2]; pH 6.0, 28 days at 46° C.) [%]	% Peak X ([2]; pH 6.0, 28 days at 46° C.) [%]	% Peak C ([2]; pH 6.5, 28 days at 46° C.) [%]	% Peak X ([2]; pH 6.5, 28 days at 46° C.) [%]	% Peak D (native EGF) [1] [%]	% Peak Y ([2]; pH 5.5, 28 days at 46° C.) [%]	% Peak Y ([2]; pH 6.0, 28 days at 46° C.) [%]	% Peak D (native EGF) ([2]; pH 6.5, 28 days at 46° C.) [%]	% Peak Y ([2]; pH 6.5, 28 days at 46° C.) [%]
With Zn++: complex ion wherein zinc is coordinately bound to recombinant human EGF; precipitates at pH 4.0-7.0	2	7	0	3	82	0	3	75	4	1	0					
Without Zn++: Recombinantly produced human epidermal growth factor (Chiron Corporation), 53 amino acid polypeptide, without zinc; control	0	26	27	3	30		6	51		6		47	25	21	52	21
